Experimental data reported in patent publication US20140087995A1 (published 2014).
Numbered stars: 1 amine (or outer) side, 2 acyl side, 3 side chain; on linkers, the order of the positions; unused ones are H or OH. Bridge positions count the residues as written; N and C are the ends. * marks the point of attachment. C20 diacid = O=C(O)CCCCCCCCCCCCCCCCCCC(=O)*; γGlu = O=C(O)[C@H](CCC(=O)[*:2])N[*:1]

T1: human amylin receptor (amylin 3(a) receptor: human calcitonin receptor with RAMP-3) (human, UniProt P30988 25-474; O60896 24-148, limits assumed)
T1 construct: whole, on cells; Whole cells in the luciferase assay (Assay II a); also called hAmylin-R; hAmylinR
T1 sequence (looked up) 1: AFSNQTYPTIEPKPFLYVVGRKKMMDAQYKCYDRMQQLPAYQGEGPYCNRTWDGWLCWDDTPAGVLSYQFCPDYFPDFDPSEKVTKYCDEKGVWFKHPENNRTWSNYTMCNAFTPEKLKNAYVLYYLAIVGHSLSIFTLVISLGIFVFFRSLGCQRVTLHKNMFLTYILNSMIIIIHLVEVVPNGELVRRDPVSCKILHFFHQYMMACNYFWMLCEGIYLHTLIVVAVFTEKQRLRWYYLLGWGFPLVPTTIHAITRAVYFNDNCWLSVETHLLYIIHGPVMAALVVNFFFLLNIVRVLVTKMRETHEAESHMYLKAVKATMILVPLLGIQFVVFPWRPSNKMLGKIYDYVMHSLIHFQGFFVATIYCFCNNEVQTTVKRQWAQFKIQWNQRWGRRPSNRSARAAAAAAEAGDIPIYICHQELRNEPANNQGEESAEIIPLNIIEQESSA
T1 sequence (looked up) 2: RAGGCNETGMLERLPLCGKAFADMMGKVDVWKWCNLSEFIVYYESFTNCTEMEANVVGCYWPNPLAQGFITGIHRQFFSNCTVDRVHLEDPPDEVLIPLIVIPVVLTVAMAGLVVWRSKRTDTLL

T2: human calcitonin receptor (human, UniProt P30988 25-474)
T2 sequence (looked up): T1 sequence (looked up) 1

B1: N^α1-[(4S)-4-carboxy-4-(19-carboxynonadecanoylamino)butanoyl]-[Glu14,Arg17,Pro21,Pro27,Asp35,Pro37]-h-amylin (peptide)
peptide: {C20 diacid-γGlu}-KCNTATCATQRLAEFLRHSSPNFGAIPSSTNVGSDTP-NH2
modifications: disulfide 2-7
SMILES: CC[C@H](C)[C@H](NC(=O)[C@H](C)NC(=O)CNC(=O)[C@H](Cc1ccccc1)NC(=O)[C@H](CC(N)=O)NC(=O)[C@@H]1CCCN1C(=O)[C@H](CO)NC(=O)[C@H](CO)NC(=O)[C@H](Cc1c[nH]cn1)NC(=O)[C@H](CCCNC(=N)N)NC(=O)[C@H](CC(C)C)NC(=O)[C@H](Cc1ccccc1)NC(=O)[C@H](CCC(=O)O)NC(=O)[C@H](C)NC(=O)[C@H](CC(C)C)NC(=O)[C@H](CCCNC(=N)N)NC(=O)[C@H](CCC(N)=O)NC(=O)[C@@H](NC(=O)[C@H](C)NC(=O)[C@@H]1CSSC[C@H](NC(=O)[C@H](CCCCN)NC(=O)CC[C@H](NC(=O)CCCCCCCCCCCCCCCCCCC(=O)O)C(=O)O)C(=O)N[C@@H](CC(N)=O)C(=O)N[C@@H]([C@@H](C)O)C(=O)N[C@@H](C)C(=O)N[C@@H]([C@@H](C)O)C(=O)N1)[C@@H](C)O)C(=O)N1CCC[C@H]1C(=O)N[C@@H](CO)C(=O)N[C@@H](CO)C(=O)N[C@H](C(=O)N[C@@H](CC(N)=O)C(=O)N[C@H](C(=O)NCC(=O)N[C@@H](CO)C(=O)N[C@@H](CC(=O)O)C(=O)N[C@H](C(=O)N1CCC[C@H]1C(N)=O)[C@@H](C)O)C(C)C)[C@@H](C)O
notes: also called compound 11
B2: N^α1-[(4S)-4-carboxy-4-(19-carboxynonadecanoylamino)butanoyl]-[Glu14,Arg17,Pro21,Pro27,Pro29]-h-amylin (peptide)
peptide: {C20 diacid-γGlu}-KCNTATCATQRLAEFLRHSSPNFGAIPSPTNVGSNTY-NH2
modifications: disulfide 2-7
SMILES: CC[C@H](C)[C@H](NC(=O)[C@H](C)NC(=O)CNC(=O)[C@H](Cc1ccccc1)NC(=O)[C@H](CC(N)=O)NC(=O)[C@@H]1CCCN1C(=O)[C@H](CO)NC(=O)[C@H](CO)NC(=O)[C@H](Cc1c[nH]cn1)NC(=O)[C@H](CCCNC(=N)N)NC(=O)[C@H](CC(C)C)NC(=O)[C@H](Cc1ccccc1)NC(=O)[C@H](CCC(=O)O)NC(=O)[C@H](C)NC(=O)[C@H](CC(C)C)NC(=O)[C@H](CCCNC(=N)N)NC(=O)[C@H](CCC(N)=O)NC(=O)[C@@H](NC(=O)[C@H](C)NC(=O)[C@@H]1CSSC[C@H](NC(=O)[C@H](CCCCN)NC(=O)CC[C@H](NC(=O)CCCCCCCCCCCCCCCCCCC(=O)O)C(=O)O)C(=O)N[C@@H](CC(N)=O)C(=O)N[C@@H]([C@@H](C)O)C(=O)N[C@@H](C)C(=O)N[C@@H]([C@@H](C)O)C(=O)N1)[C@@H](C)O)C(=O)N1CCC[C@H]1C(=O)N[C@@H](CO)C(=O)N1CCC[C@H]1C(=O)N[C@H](C(=O)N[C@@H](CC(N)=O)C(=O)N[C@H](C(=O)NCC(=O)N[C@@H](CO)C(=O)N[C@@H](CC(N)=O)C(=O)N[C@H](C(=O)N[C@@H](Cc1ccc(O)cc1)C(N)=O)[C@@H](C)O)C(C)C)[C@@H](C)O
notes: also called compound 37
B3: N^α1-[(4S)-4-carboxy-4-(19-carboxynonadecanoylamino)butanoyl]-[Glu14,Arg17,Pro21,Pro27,His35]-h-amylin (peptide)
peptide: {C20 diacid-γGlu}-KCNTATCATQRLAEFLRHSSPNFGAIPSSTNVGSHTY-NH2
modifications: disulfide 2-7
SMILES: CC[C@H](C)[C@H](NC(=O)[C@H](C)NC(=O)CNC(=O)[C@H](Cc1ccccc1)NC(=O)[C@H](CC(N)=O)NC(=O)[C@@H]1CCCN1C(=O)[C@H](CO)NC(=O)[C@H](CO)NC(=O)[C@H](Cc1c[nH]cn1)NC(=O)[C@H](CCCNC(=N)N)NC(=O)[C@H](CC(C)C)NC(=O)[C@H](Cc1ccccc1)NC(=O)[C@H](CCC(=O)O)NC(=O)[C@H](C)NC(=O)[C@H](CC(C)C)NC(=O)[C@H](CCCNC(=N)N)NC(=O)[C@H](CCC(N)=O)NC(=O)[C@@H](NC(=O)[C@H](C)NC(=O)[C@@H]1CSSC[C@H](NC(=O)[C@H](CCCCN)NC(=O)CC[C@H](NC(=O)CCCCCCCCCCCCCCCCCCC(=O)O)C(=O)O)C(=O)N[C@@H](CC(N)=O)C(=O)N[C@@H]([C@@H](C)O)C(=O)N[C@@H](C)C(=O)N[C@@H]([C@@H](C)O)C(=O)N1)[C@@H](C)O)C(=O)N1CCC[C@H]1C(=O)N[C@@H](CO)C(=O)N[C@@H](CO)C(=O)N[C@H](C(=O)N[C@@H](CC(N)=O)C(=O)N[C@H](C(=O)NCC(=O)N[C@@H](CO)C(=O)N[C@@H](Cc1c[nH]cn1)C(=O)N[C@H](C(=O)N[C@@H](Cc1ccc(O)cc1)C(N)=O)[C@@H](C)O)C(C)C)[C@@H](C)O
notes: also called compound 18
B4: N^α1N^α1-[(4S)-4-carboxy-4-(19-carboxynonadecanoylamino)butanoyl]-[Glu14,Arg17,Pro21,Pro27,Glu35]-h-amylin (peptide)
peptide: {C20 diacid-γGlu}-KCNTATCATQRLAEFLRHSSPNFGAIPSSTNVGSETY-NH2
modifications: disulfide 2-7
SMILES: CC[C@H](C)[C@H](NC(=O)[C@H](C)NC(=O)CNC(=O)[C@H](Cc1ccccc1)NC(=O)[C@H](CC(N)=O)NC(=O)[C@@H]1CCCN1C(=O)[C@H](CO)NC(=O)[C@H](CO)NC(=O)[C@H](Cc1c[nH]cn1)NC(=O)[C@H](CCCNC(=N)N)NC(=O)[C@H](CC(C)C)NC(=O)[C@H](Cc1ccccc1)NC(=O)[C@H](CCC(=O)O)NC(=O)[C@H](C)NC(=O)[C@H](CC(C)C)NC(=O)[C@H](CCCNC(=N)N)NC(=O)[C@H](CCC(N)=O)NC(=O)[C@@H](NC(=O)[C@H](C)NC(=O)[C@@H]1CSSC[C@H](NC(=O)[C@H](CCCCN)NC(=O)CC[C@H](NC(=O)CCCCCCCCCCCCCCCCCCC(=O)O)C(=O)O)C(=O)N[C@@H](CC(N)=O)C(=O)N[C@@H]([C@@H](C)O)C(=O)N[C@@H](C)C(=O)N[C@@H]([C@@H](C)O)C(=O)N1)[C@@H](C)O)C(=O)N1CCC[C@H]1C(=O)N[C@@H](CO)C(=O)N[C@@H](CO)C(=O)N[C@H](C(=O)N[C@@H](CC(N)=O)C(=O)N[C@H](C(=O)NCC(=O)N[C@@H](CO)C(=O)N[C@@H](CCC(=O)O)C(=O)N[C@H](C(=O)N[C@@H](Cc1ccc(O)cc1)C(N)=O)[C@@H](C)O)C(C)C)[C@@H](C)O
notes: also called compound 22
B5: N^α1-[(4S)-4-carboxy-4-[[(4S)-4-carboxy-4-(19-carboxynonadecanoylamino)butanoyl]amino]butanoyl]-[Glu14,Arg17,Pro21,Pro27,Pro37]-h-amylin (peptide)
peptide: {C20 diacid-γGlu-γGlu}-KCNTATCATQRLAEFLRHSSPNFGAIPSSTNVGSNTP-NH2
modifications: disulfide 2-7
SMILES: CC[C@H](C)[C@H](NC(=O)[C@H](C)NC(=O)CNC(=O)[C@H](Cc1ccccc1)NC(=O)[C@H](CC(N)=O)NC(=O)[C@@H]1CCCN1C(=O)[C@H](CO)NC(=O)[C@H](CO)NC(=O)[C@H](Cc1c[nH]cn1)NC(=O)[C@H](CCCNC(=N)N)NC(=O)[C@H](CC(C)C)NC(=O)[C@H](Cc1ccccc1)NC(=O)[C@H](CCC(=O)O)NC(=O)[C@H](C)NC(=O)[C@H](CC(C)C)NC(=O)[C@H](CCCNC(=N)N)NC(=O)[C@H](CCC(N)=O)NC(=O)[C@@H](NC(=O)[C@H](C)NC(=O)[C@@H]1CSSC[C@H](NC(=O)[C@H](CCCCN)NC(=O)CC[C@H](NC(=O)CC[C@H](NC(=O)CCCCCCCCCCCCCCCCCCC(=O)O)C(=O)O)C(=O)O)C(=O)N[C@@H](CC(N)=O)C(=O)N[C@@H]([C@@H](C)O)C(=O)N[C@@H](C)C(=O)N[C@@H]([C@@H](C)O)C(=O)N1)[C@@H](C)O)C(=O)N1CCC[C@H]1C(=O)N[C@@H](CO)C(=O)N[C@@H](CO)C(=O)N[C@H](C(=O)N[C@@H](CC(N)=O)C(=O)N[C@H](C(=O)NCC(=O)N[C@@H](CO)C(=O)N[C@@H](CC(N)=O)C(=O)N[C@H](C(=O)N1CCC[C@H]1C(N)=O)[C@@H](C)O)C(C)C)[C@@H](C)O
notes: also called compound 14

biological target: T1, human amylin receptor (amylin 3(a) …); experiment: SPA competition binding on membranes of BHK cells with human calcitonin receptor + RAMP-3; displacement of 125I-rat amylin (Assay V)
Protocol: The binding assay was performed using scintillation proximity assay (SPA) beads (RPNQ0001) from PerkinElmer and cell membranes from the Amylin 3(a)/CRE-luc cells (as described in Assay (II)) were used. Membranes were prepared in the following way; the cells were rinsed with PBS and incubated with Versene for approximately 5 min before harvesting. The cells were flushed with PBS and the cell-suspension was centrifuged for 5 min at 1000 rpm. Cells were homogenized (ultrathurrax) in a buffer containing 20 mM Na-HEPES and 10 mM EDTA (pH 7.4) and centrifuged at 20.000 rpm for 15 min. The resulting pellet was resuspended, homogenized and centrifuged (20.000 rpm, 15 min) in a buffer containing 20 mM Na-HEPES and 0.1 mM EDTA (pH 7.4, buffer 2). The resulting pellet was resuspended in buffer 2 and protein concentration was measured (BCA protein Assay, Pierce). The homogenate was kept cold during the whole procedure. The membranes were kept at −80° C. until use. The assay was performed in a 384 well Optiplate (PerkinElmer) in a total volume of 40 ul. Membranes were mixed with SPA beads. Final concentration of membranes 35 ng/μL final and SPA beads was 0.05 mg/well. Test-compounds were dissolved in DMSO and further diluted in assay buffer (50 mM Hepes, pH 7.4, 1 mM CaCl2, 5 mM MgCl₂, 0.1% OA and 0.02% Tween20). […] The final mixture was incubated with shaking at 400 rpm for 120 min at 25° C. prior to centrifugation (1500 rpm, 10 min). Samples were analyzed on TopCounter™ (Packard). The IC₅₀ was calculated using (one site binding competition analysis) GraphPad Prism5 as a measure of receptor affinity.

| IC50 [nM] | Binder |
| --- | --- |
| 0.105 | B1 |
| 0.97 | B2 |
| 0.554 | B3 |
| 0.794 | B4 |
| 0.196 | B5 |
| 0.072 | {C20 diacid-γGlu}-KCNTATCATQRLAEFLRHSSPNFGAIPSSTNVGSNTP-NH2 (disulfide 2-7, also called compound 8) |

biological target: T2, human calcitonin receptor; experiment: cell-based or functional assay

| Ratio hCT/hAmylin funct. [ratio] | Binder |
| --- | --- |
| 0.9 | B1 |
| 4 | B2 |
| 4.8 | B3 |
| 3.8 | B4 |
| 1.6 | B5 |
| 1.1 | {C20 diacid-γGlu}-KCNTATCATQRLAEFLRHSSPNFGAIPSSTNVGSNTP-NH2 (disulfide 2-7, also called compound 8) |
